Measurements as given in patent US20150139900A1 (BIOARCTIC NEUROSCIENCE, published 2015).

Tests used:
[1] = biological target: ONE-stabilized human α-synuclein protofibrils (human, UniProt P37840 1-140); assay: competition ELISA
[2] = biological target: T1, HNE-stabilized human α-synuclein protofibrils (human, UniProt P37840 1-140); assay: competition ELISA, antigen in solution against plate coated with protofibrils
Procedure: (§1) Specifically, a high-binding ELISA microtiter plate was coated with 100 μl/well of 1 μg/ml of α-synuclein protofibril, diluted in 1×PBS, sealed with adhesive sealer and incubated overnight at +4° C. Then, the coating solution was discarded and the residual binding capacity of the plate was blocked by adding 200 μl/well of PBS-Tween 20 (0.05%). The sealed plate was incubated for 60 min at room temperature (R.T.) by shaking at 900 rpm.
(§2) Meanwhile, peptide solution was prepared in 1×PBS-Tween 20 (0.05%) by diluting α-synuclein monomers or protofibril to a concentration of 140 nM. A 10-step 3× dilution series of α-synuclein monomers and protofibrils was performed in a volume of 50 μl in a round bottomed, low protein binding microtiter plate. To this solution, 50 μl of the tested antibody diluted in PBS-Tween 20 (0.05%) to a concentration of 100 ng/ml was added and allowed to interact for 60 min at R.T. by shaking at 900 rpm. Sub sequentially, these pre-incubated samples were added to the washed (3× wash) coated high-binding plate and allowed to incubate for 15 min at R.T. without shaking. The ELISA plate was then washed to remove unbound antibodies.
(§3) Finally, the ELISA plate was washed to remove unbound antibodies and 100 μl of ALP-substrate were added to each well. The plate was kept dark during incubation at R.T. until a yellow color developed. Absorbance values were measured on continuous mode at a wavelength of 405 nm every 15 minutes up to 120 minutes.

α-synuclein monomers = α-synuclein monomers (human, UniProt P37840 1-140); assay: as above
Procedure: as §1, §2, §3

[3] = biological target: T1, HNE-stabilized human α-synuclein …; assay: competition ELISA

Measured: binding result

B1: mAb49/G (antibody, V domains shown)
VH: EVQLVETGGGLVQPKGSLKLSCATSGFTFNTYAMNWVRQAPGKGLEWVARIRTKSNDYATYYADSVKGRITISRDDSQSMLYLQMNNLKTEDTAMYYCVRVGYRPYAMDYWGQGTSVTVSS
VL: DVLMTQTPLSLPVSLGDQASISCRSSQNIVHSNGNTYLEWYLQKPGQSPTLLIYKVSNRFSGVPDRFSGSGSGTDFTLKISRVEAEDLGVYYCFQGSHVPLTFGAGTKLELK
notes: Mouse monoclonal antibody from hybridoma, detected with anti-mouse IgG; constant regions are not; also called BA1
binds: [1] | [2] | α-synuclein monomers

B2: mAb38F11/2-8 (antibody, V domains shown)
VH: EVMLVESGGGLVKPGGSLKLSCAASGFTFSSYAMSWVRQTPEKRLEWVATISNGGSYTYYPDSVKGRFTISRDNAKNTLYLQMSSLRSEDTAMYYCARHSDYSGAWFAYWGQGTLVTVSA
VL: QIVLTQSPAIMSASPGEKVTISCSASSSVSYMYWYQQKPGSSPKPWIYRTSNLASGVPARFSGSGSGTSYSLTISSMEAEDAATYYCQQYHSYPYTFGGGTKLEIK
notes: Mouse monoclonal antibody from hybridoma; also called BA3
binds: [3] | [1] | α-synuclein monomers

B3: mAb48B11/8 (antibody, V domains shown)
VH: EVQLQESGPSLVKPSQTLSLTCSVTGDSFTSGYWNWIRKFPGNKLEYMGYIRYSGNTYYNPSLKSRISITRDTSKNQYYLQLISVTTEDTATFYCARSYYDYDRAWFAYWGQGALVTVSA
VL: DVVMTQTPLSLPVSLGDQASISCRSSQSLVHSNGNTYLHWYLQKPGQSPKLLIYKVSNRFSGVPDRFSGSGSGTDFTLKISRVEAEDLGVYFCSQSTHVPWTFGGGTKLEIK
notes: Mouse monoclonal antibody from hybridoma; also called BA4
binds: [3] | [1] | α-synuclein monomers
